Source: article PMC6269467 (Nature Communications, 2018)

How the values were obtained:
[1] = target: the molecule itself; assay: crystal structure; αNcat-ABD-H1 crystal forms A (P6522, 2.2 Å) and B (P212121, 2.8 Å), grown at 277 K by vapor diffusion
[2] = target: T1, filamentous actin (F-actin) from rabbit skeletal muscle (rabbit, UniProt P68135 1-377); assay: BLI; F-actin immobilised on Streptavidin (SA) biosensors through LAbio peptide; αcat-ABD in solution at various concentrations; 26 °C, Octet384; 2 mM Tris-HCl pH 8.0, 0.2 mM ATP, 0.5 mM DTT, 0.1 mM CaCl2, 50 mM KCl, 2 mM MgCl2, 0.1% BSA, 0.02% Tween-20; 2:1 heterogeneous ligand model; conditions: both partners purified
[3] = target: T1, filamentous actin (F-actin) from rabbit …; assay: co-sedimentation; actin cosedimentation at high RCF: 5 μM ABD and 5 μM actin in 50 μL Buffer-F, 1 h at RT, Airfuge ≥100,000×g 20 min at RT; supernatant and pellet by SDS-PAGE with coomassie, band intensity by ImageJ; conditions: both partners purified
[4] = target: T1, filamentous actin (F-actin) from rabbit …; assay: BLI; as a2 but Super-Streptavidin (SSA) biosensors with increased streptavidin density, used for αEcat-ABD-H1; 1:1 binding model; conditions: both partners purified

Binder | binding result [1] | KD1 (2:1 heterogeneous ligand model) [2] [µM] | KD2 (2:1 heterogeneous ligand model) [2] [µM] | koff1 (2:1 heterogeneous ligand model) [2] [s⁻¹] | koff2 (2:1 heterogeneous ligand model) [2] [s⁻¹] | kon1 (2:1 heterogeneous ligand model) [2] [M⁻¹ s⁻¹] | kon2 (2:1 heterogeneous ligand model) [2] [M⁻¹ s⁻¹] | reduction in the amount of ABD cosedimenting with F-actin compared to αEcat-ABD-WT [3] [%] | Kd [4] [nM] | koff [4] [s⁻¹] | kon [4] [M⁻¹ s⁻¹]
αN-catenin actin-binding domain with the helix-1 mutation (αNcat-ABD-H1) (domain or fragment, mouse, UniProt Q61301-2 651-905, looked up, The substitution is printed in αN-catenin's own numbers; PDB 4K1O is the wild-type parent; 6DUW (form A) and 6DUY (form B) are this construct; also called αN-catenin ABD-H1; αN-H1; source: E. coli BL21-CodonPlus, purified (glutathione-sepharose, thrombin cleavage, Superdex 75); 15N-labelled in M9 minimal media for NMR; not shown: GST, N-terminal, cleaved) SRTSVQTEDDQLIAGQSAGSGSAQLPQEEKAKIAEQVEIFHQEKSKLDAEVAKWDDSGNDIIVLAKQMCMIMMEMTDFTRGKGPLKNTSDVINAAKKIAEAGSRMDKLARAVADQCPDSACKQDLLAYLQRIALYCHQLNICSKVKAEVQNLGGELIVSGLDSATSLIQAAKNLMNAVVLTVKASYVASTKYQKVYGTAAVNSPVVSWKMKAPEKKPLVKREKPEEFQTRVRRGSQKKHISPVQALSEFKAMDSF | binds | – | – | – | – | – | – | – | – | – | –
αE-catenin actin-binding domain, wild type (αEcat-ABD-WT; residues 652-906) (domain or fragment, source: E. coli BL21-CodonPlus, purified (glutathione-sepharose, thrombin cleavage, Superdex 75); not shown: GST, N-terminal, cleaved) SRTSVQTEDDQLIAGQSARAIMAQLPQEQKAKIAEQVASFQEEKSKLDAEVSKWDDSGNDIIVLAKQMCMIMMEMTDFTRGKGPLKNTSDVISAAKKIAEAGSRMDKLGRTIADHCPDSACKQDLLAYLQRIALYCHQLNICSKVKAEVQNLGGELVVSGVDSAMSLIQAAKNLMNAVVQTVKASYVASTKYQKSQGMASLNLPAVSWKMKAPEKKPLVKREKQDETQTKIKRASQKKHVNPVQALSEFKAMDSI | – | 2 | 0.3 | 0.465 | 0.00964 | 234000 | 31900 | – | – | – | –
αEcat-ABD V796A (domain or fragment, source: E. coli BL21-CodonPlus, purified (glutathione-sepharose, thrombin cleavage, Superdex 75); not shown: GST, N-terminal, cleaved) SRTSVQTEDDQLIAGQSARAIMAQLPQEQKAKIAEQVASFQEEKSKLDAEVSKWDDSGNDIIVLAKQMCMIMMEMTDFTRGKGPLKNTSDVISAAKKIAEAGSRMDKLGRTIADHCPDSACKQDLLAYLQRIALYCHQLNICSKAKAEVQNLGGELVVSGVDSAMSLIQAAKNLMNAVVQTVKASYVASTKYQKSQGMASLNLPAVSWKMKAPEKKPLVKREKQDETQTKIKRASQKKHVNPVQALSEFKAMDSI | – | 3.7 | 1.8 | 0.773 | 0.0125 | 211000 | 6910 | 47 | – | – | –
αEcat-ABD 3A (L785A, I792A and V796A together) (domain or fragment, source: E. coli BL21-CodonPlus, purified (glutathione-sepharose, thrombin cleavage, Superdex 75); not shown: GST, N-terminal, cleaved) SRTSVQTEDDQLIAGQSARAIMAQLPQEQKAKIAEQVASFQEEKSKLDAEVSKWDDSGNDIIVLAKQMCMIMMEMTDFTRGKGPLKNTSDVISAAKKIAEAGSRMDKLGRTIADHCPDSACKQDLLAYLQRIAAYCHQLNACSKAKAEVQNLGGELVVSGVDSAMSLIQAAKNLMNAVVQTVKASYVASTKYQKSQGMASLNLPAVSWKMKAPEKKPLVKREKQDETQTKIKRASQKKHVNPVQALSEFKAMDSI | – | 38.4 | 6.1 | 0.799 | 0.00849 | 20800 | 1400 | 78 | – | – | –
αEcat-ABD L785A (domain or fragment, source: E. coli BL21-CodonPlus, purified (glutathione-sepharose, thrombin cleavage, Superdex 75); not shown: GST, N-terminal, cleaved) SRTSVQTEDDQLIAGQSARAIMAQLPQEQKAKIAEQVASFQEEKSKLDAEVSKWDDSGNDIIVLAKQMCMIMMEMTDFTRGKGPLKNTSDVISAAKKIAEAGSRMDKLGRTIADHCPDSACKQDLLAYLQRIAAYCHQLNICSKVKAEVQNLGGELVVSGVDSAMSLIQAAKNLMNAVVQTVKASYVASTKYQKSQGMASLNLPAVSWKMKAPEKKPLVKREKQDETQTKIKRASQKKHVNPVQALSEFKAMDSI | – | 27.8 | 4.8 | 0.69 | 0.0107 | 24900 | 2210 | 75 | – | – | –
αE-catenin actin-binding domain with the helix-1 mutation (αEcat-ABD-H1; RAIM670-673GSGS) (domain or fragment, source: E. coli BL21-CodonPlus, purified (glutathione-sepharose, thrombin cleavage, Superdex 75); not shown: GST, N-terminal, cleaved) SRTSVQTEDDQLIAGQSAGSGSAQLPQEQKAKIAEQVASFQEEKSKLDAEVSKWDDSGNDIIVLAKQMCMIMMEMTDFTRGKGPLKNTSDVISAAKKIAEAGSRMDKLGRTIADHCPDSACKQDLLAYLQRIALYCHQLNICSKVKAEVQNLGGELVVSGVDSAMSLIQAAKNLMNAVVQTVKASYVASTKYQKSQGMASLNLPAVSWKMKAPEKKPLVKREKQDETQTKIKRASQKKHVNPVQALSEFKAMDSI | – | – | – | – | – | – | – | – | 580 | 0.264 | 455000
αEcat-ABD I792A (domain or fragment, source: E. coli BL21-CodonPlus, purified (glutathione-sepharose, thrombin cleavage, Superdex 75); not shown: GST, N-terminal, cleaved) SRTSVQTEDDQLIAGQSARAIMAQLPQEQKAKIAEQVASFQEEKSKLDAEVSKWDDSGNDIIVLAKQMCMIMMEMTDFTRGKGPLKNTSDVISAAKKIAEAGSRMDKLGRTIADHCPDSACKQDLLAYLQRIALYCHQLNACSKVKAEVQNLGGELVVSGVDSAMSLIQAAKNLMNAVVQTVKASYVASTKYQKSQGMASLNLPAVSWKMKAPEKKPLVKREKQDETQTKIKRASQKKHVNPVQALSEFKAMDSI | – | 4 | 0.6 | 0.945 | 0.00881 | 234000 | 14500 | 36 | – | – | –
αEcat-ABD V714A (domain or fragment, source: E. coli BL21-CodonPlus, purified (glutathione-sepharose, thrombin cleavage, Superdex 75); not shown: GST, N-terminal, cleaved) SRTSVQTEDDQLIAGQSARAIMAQLPQEQKAKIAEQVASFQEEKSKLDAEVSKWDDSGNDIIALAKQMCMIMMEMTDFTRGKGPLKNTSDVISAAKKIAEAGSRMDKLGRTIADHCPDSACKQDLLAYLQRIALYCHQLNICSKVKAEVQNLGGELVVSGVDSAMSLIQAAKNLMNAVVQTVKASYVASTKYQKSQGMASLNLPAVSWKMKAPEKKPLVKREKQDETQTKIKRASQKKHVNPVQALSEFKAMDSI | – | 2.6 | 0.7 | 0.568 | 0.0135 | 221000 | 20100 | – | – | – | –
